In article PMC9357155 (Cancer Discovery, 2022):
Numbering of substitutions follows the chain as printed. Names may count otherwise.

Columns and labels:
[1] = target: T1, Full-length His-tagged MALT1 (human, UniProt Q9UDY8 1-824); assay: negative-stain EM
T1 sequence: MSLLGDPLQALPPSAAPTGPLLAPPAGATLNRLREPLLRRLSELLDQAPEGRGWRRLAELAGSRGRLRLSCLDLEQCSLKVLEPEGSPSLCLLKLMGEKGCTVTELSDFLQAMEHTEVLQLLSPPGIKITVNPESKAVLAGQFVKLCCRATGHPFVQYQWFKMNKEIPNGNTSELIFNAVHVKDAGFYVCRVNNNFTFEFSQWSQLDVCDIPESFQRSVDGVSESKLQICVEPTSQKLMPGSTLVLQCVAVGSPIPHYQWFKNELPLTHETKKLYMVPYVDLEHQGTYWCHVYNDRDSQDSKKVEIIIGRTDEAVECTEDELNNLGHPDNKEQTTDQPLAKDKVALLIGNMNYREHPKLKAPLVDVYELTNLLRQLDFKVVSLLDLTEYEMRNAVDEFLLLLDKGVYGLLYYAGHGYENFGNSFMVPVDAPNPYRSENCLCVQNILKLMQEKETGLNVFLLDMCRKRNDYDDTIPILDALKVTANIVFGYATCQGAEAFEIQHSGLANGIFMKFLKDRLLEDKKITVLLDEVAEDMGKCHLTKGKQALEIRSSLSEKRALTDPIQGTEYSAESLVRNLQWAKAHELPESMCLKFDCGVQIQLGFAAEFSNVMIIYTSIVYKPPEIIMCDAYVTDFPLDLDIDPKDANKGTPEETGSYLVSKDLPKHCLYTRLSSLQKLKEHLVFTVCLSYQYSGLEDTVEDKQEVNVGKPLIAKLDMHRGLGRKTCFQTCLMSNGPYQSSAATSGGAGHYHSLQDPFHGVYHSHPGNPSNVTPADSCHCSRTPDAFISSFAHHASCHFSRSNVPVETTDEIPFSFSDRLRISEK

[2] = target: T1, Full-length His-tagged MALT1; assay: fluorescence quenching polymerisation assay
SEC = target: the molecule itself; assay: SEC

B1: BCL10 wild type, full length, after removal of the MBP tag by 3C protease (natural protein)
chain: MEPTAPSLTEEDLTEVKKDALENLRVYLCEKIIAERHFDHLRAKKILSREDTEEISCRTSSRKRAGKLLDYLQENPKGLDTLVESIRREKTQNFLIQKITDEVLKLRNIKLEHLKGLKCSSCEPFPDGATNNLSRSNSDESNFSEKLRASTVMYHPEGESSTTPFFSTNSSLNLPVLEVGRTENTIFSSTTLPRPGDPGAPPLPPDLQLEEEGTCANSSEMFLPLRSRTVSRQ
modifications: Alexa488 (C5-maleimide) on cysteine residues in the confocal and quenching assays; not labelled for EM
binding result [1]: binds

B2: BCL10 R58Q, full length, after removal of the MBP tag by 3C protease (natural protein)
chain: B1 chain with R58Q
modifications: Alexa488 (C5-maleimide) on cysteine residues in the confocal and quenching assays; not labelled for EM
binding result [2]: binds

B3: BCL10 E140X truncation mutant, after removal of the MBP tag by 3C protease (domain or fragment)
chain: MEPTAPSLTEEDLTEVKKDALENLRVYLCEKIIAERHFDHLRAKKILSREDTEEISCRTSSRKRAGKLLDYLQENPKGLDTLVESIRREKTQNFLIQKITDEVLKLRNIKLEHLKGLKCSSCEPFPDGATNNLSRSNSD
modifications: Alexa488 (C5-maleimide) on cysteine residues in the confocal and quenching assays; not labelled for EM
binding result [1]: binds

B4: MBP-fused BCL10 E140X (domain or fragment)
chain: B3 chain
binding result (SEC): binds
